Results taken from patent US5811533.

Tested on: T1, VEGF165 (recombinant human vascular endothelial growth factor, 165 aa form) (Homo sapiens), P15692-4
T1 sequence: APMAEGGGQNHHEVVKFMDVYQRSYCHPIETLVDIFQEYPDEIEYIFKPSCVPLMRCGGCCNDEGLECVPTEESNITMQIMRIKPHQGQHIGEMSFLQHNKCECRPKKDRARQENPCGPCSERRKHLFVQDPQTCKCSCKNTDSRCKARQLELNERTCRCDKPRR
Experiment: filter
Settings: not given

Row | Sequence | Kd [µM]
1 | ATCCGCCTGATTAGCGATACTGGTGGACTAGAGGNCAGCAAACGATCCTTGGTTCGCGTCCACTTGAGCAAAATCACCTGCAGGGG [ssDNA 32] | 0.002
2 | ATCCGCCTGATTAGCGATACTGGTGTGAACCAGACCTACNGGAACGTTATCGCTTGTGACTTGAGCAAAATCACCTGCAGGGG [ssDNA 44] | 0.0004
3 | CTACCTACGATCTGACTAGCACAAGGGGTCCTGNNGAATGGGGGAATACGCTAGCCGAAGCTTACTCTCATGTAGTTCCT [ssDNA b55] | 0.015
4 | CTACCTACGATCTGACTAGCATCCTTCCGAATGGGGGAAATGGCGNCCCAGCTTACTCTCATGTAGTTCCT [ssDNA b89] | 0.002
5 | CTACCTACGATCTGACTAGCCCACTGCAGAGAGTCAACCTTACGANGCCAAGGTTGCGGTGCTTAGCTTACTCTCATGTAGTTCCT [ssDNA b97] | > 0.001
6 | CTACCTACGATCTGACTAGCCCACTGCATAGAGAGTCGCAAGACACGGTGCTTTATTCNCCGCTTAGCTTACTCTCATGTAGTTCCT [ssDNA b62] | 0.0029
7 | CTACCTACGATCTGACTAGCCCACTGCATAGAGATACTGGATTCGACNNNCCAAAGTTTCGGTGCTTAGCTTACTCTCATGTAGTTCCT [ssDNA b96] | 0.0015
8 | CTACCTACGATCTGACTAGCTGCNNGCGGGCGGTTCTCCGGATGGGACCATAAGGCTTTAGCTTAGCTTACTCTCATGTAGTTCCT [ssDNA b54] | 0.0025
9 | TGGACTAGAGGNCAGCAAACGATCCTTGGTTCGCGTCC [32t] | 0.017

Same assay, conditions: 2'-NH2 pyrimidines; random pool

Row | Sequence | Kd [µM]
10 | GGGAGACAAGAAUAACGCUCAANNNNNNNNNNNNNNNNNNNNNNNNNNNNNNUUCGACAGGAGGCUCACAACAGGC [Random RNA A (30N8)] | 0.083
11 | GGGAGGACGAUGCGGNNNNNNNNNNNNNNNNNNNNNNNNNNNNNNNNNNNNNNNNNNNNNNNNNNCAGACGACUCGCCCGA [Random RNA B (50N7)] | 0.24

Same assay, conditions: clone listed in families 1 and 2

Row | Sequence | Kd [µM]
12 | CTACCTACGATCTGACTAGCACGCAAGAGAGGTCNCCGAATGGCAGTCTCAGCCGCTAACAGCTTACTCTCATGTAGTTCCT [ssDNA b91] | 0.0039

Same assay, conditions: random pool

Row | Sequence | Kd [µM]
13 | ATCCGCCTGATTAGCGATACTNNNNNNNNNNNNNNNNNNNNNNNNNNNNNNNNNNNNNNNNACTTGAGCAAAATCACCTGCAGGGG [starting random ssDNA pool] | 0.2
14 | GGGAGCUCAGAAUAAACGCUCAANNNNNNNNNNNNNNNNNNNNNNNNNNNNNNUUCGACAUGAGGCCCGGAUCCGGC [random RNA pool (30N)] | 0.2

Tested on: PDGF
Experiment: filter
Settings: specificity

Row | Sequence | Kd [µM]
15 | GGAAGCUUGAUGGGUGACACACGUCAUGCCGAGCU [ligand 44t] | 0.6
16 | GGCCGGUAGUCGCAUGGCCCAUCGCGCCCGG [ligand 100t] | 0.6
